Source: US20250304643A1 (BAINAN BIOTECH, published 2025)
*1 amine or outer side, *2 acyl side, *3 side chain or, on linkers, in order; H or OH if unused. Where no end group is shown, it is not given here. Side-chain parts run from the residue outwards. [ ]: non-standard residue; d: D form. The star is where a group is joined. C16 diacid = O=C(O)CCCCCCCCCCCCCCC(=O)*; γGlu = O=C(O)[C@H](CCC(=O)[*:2])N[*:1]; Palmitoyl = CCCCCCCCCCCCCCCC(=O)*; Decanoyl = CCCCCCCCCC(=O)*; Aib = CC(C)(N)C(=O)O

T1: human glucagon-like peptide-2 receptor (human, UniProt O95838 1-553)
T1 sequence (looked up): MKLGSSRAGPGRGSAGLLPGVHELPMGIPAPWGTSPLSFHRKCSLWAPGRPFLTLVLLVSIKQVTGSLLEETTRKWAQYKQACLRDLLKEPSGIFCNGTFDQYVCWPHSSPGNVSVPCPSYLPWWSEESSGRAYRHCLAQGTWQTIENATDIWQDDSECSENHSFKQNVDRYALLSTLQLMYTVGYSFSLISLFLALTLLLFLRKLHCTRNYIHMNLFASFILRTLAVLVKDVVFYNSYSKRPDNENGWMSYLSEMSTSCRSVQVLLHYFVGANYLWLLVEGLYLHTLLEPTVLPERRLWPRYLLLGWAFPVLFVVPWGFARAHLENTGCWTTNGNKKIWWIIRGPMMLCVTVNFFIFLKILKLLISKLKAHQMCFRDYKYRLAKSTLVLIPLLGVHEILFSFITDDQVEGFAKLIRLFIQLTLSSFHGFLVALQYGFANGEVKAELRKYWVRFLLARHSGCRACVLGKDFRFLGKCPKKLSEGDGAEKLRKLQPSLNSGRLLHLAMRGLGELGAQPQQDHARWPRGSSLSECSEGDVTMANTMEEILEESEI

T2: human glucose-dependent insulinotropic polypeptide receptor (human, UniProt P48546 22-466)
T2 sequence (looked up): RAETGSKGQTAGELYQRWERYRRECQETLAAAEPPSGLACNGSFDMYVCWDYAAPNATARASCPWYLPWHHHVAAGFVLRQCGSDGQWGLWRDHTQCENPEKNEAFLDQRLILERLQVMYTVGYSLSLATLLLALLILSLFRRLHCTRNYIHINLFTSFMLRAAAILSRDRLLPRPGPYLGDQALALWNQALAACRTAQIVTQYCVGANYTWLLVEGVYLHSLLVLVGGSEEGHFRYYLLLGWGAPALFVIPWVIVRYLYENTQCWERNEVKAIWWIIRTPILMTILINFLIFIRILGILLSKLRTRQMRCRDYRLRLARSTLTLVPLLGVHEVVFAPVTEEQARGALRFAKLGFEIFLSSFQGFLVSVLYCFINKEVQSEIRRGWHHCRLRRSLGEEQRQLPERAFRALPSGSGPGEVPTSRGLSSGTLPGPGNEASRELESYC

B1: Compound no. 10 (peptide)
peptide: H-H[Aib]DGTFK([γGlu-Palmitoyl])SDYSTILDNLAARDFINWLIQTKITK-OH
SMILES: CCCCCCCCCCCCCCCC(=O)N[C@@H](CCC(=O)NCCCC[C@H](NC(=O)[C@H](Cc1ccccc1)NC(=O)[C@@H](NC(=O)CNC(=O)[C@H](CC(=O)O)NC(=O)C(C)(C)NC(=O)[C@@H](N)Cc1c[nH]cn1)[C@@H](C)O)C(=O)N[C@@H](CO)C(=O)N[C@@H](CC(=O)O)C(=O)N[C@@H](Cc1ccc(O)cc1)C(=O)N[C@@H](CO)C(=O)N[C@H](C(=O)N[C@H](C(=O)N[C@@H](CC(C)C)C(=O)N[C@@H](CC(=O)O)C(=O)N[C@@H](CC(N)=O)C(=O)N[C@@H](CC(C)C)C(=O)N[C@@H](C)C(=O)N[C@@H](C)C(=O)N[C@@H](CCCNC(=N)N)C(=O)N[C@@H](CC(=O)O)C(=O)N[C@@H](Cc1ccccc1)C(=O)N[C@H](C(=O)N[C@@H](CC(N)=O)C(=O)N[C@@H](Cc1c[nH]c2ccccc12)C(=O)N[C@@H](CC(C)C)C(=O)N[C@H](C(=O)N[C@@H](CCC(N)=O)C(=O)N[C@H](C(=O)N[C@@H](CCCCN)C(=O)N[C@H](C(=O)N[C@H](C(=O)N[C@@H](CCCCN)C(=O)O)[C@@H](C)O)[C@@H](C)CC)[C@@H](C)O)[C@@H](C)CC)[C@@H](C)CC)[C@@H](C)CC)[C@@H](C)O)C(=O)O
B2: Compound no. 5 (peptide)
peptide: Palmitoyl-H[Aib]DGTFISDYST[Aib]LDNLAARDFINWLIQTKITK-OH
SMILES: CCCCCCCCCCCCCCCC(=O)N[C@@H](Cc1c[nH]cn1)C(=O)NC(C)(C)C(=O)N[C@@H](CC(=O)O)C(=O)NCC(=O)N[C@H](C(=O)N[C@@H](Cc1ccccc1)C(=O)N[C@H](C(=O)N[C@@H](CO)C(=O)N[C@@H](CC(=O)O)C(=O)N[C@@H](Cc1ccc(O)cc1)C(=O)N[C@@H](CO)C(=O)N[C@H](C(=O)NC(C)(C)C(=O)N[C@@H](CC(C)C)C(=O)N[C@@H](CC(=O)O)C(=O)N[C@@H](CC(N)=O)C(=O)N[C@@H](CC(C)C)C(=O)N[C@@H](C)C(=O)N[C@@H](C)C(=O)N[C@@H](CCCNC(=N)N)C(=O)N[C@@H](CC(=O)O)C(=O)N[C@@H](Cc1ccccc1)C(=O)N[C@H](C(=O)N[C@@H](CC(N)=O)C(=O)N[C@@H](Cc1c[nH]c2ccccc12)C(=O)N[C@@H](CC(C)C)C(=O)N[C@H](C(=O)N[C@@H](CCC(N)=O)C(=O)N[C@H](C(=O)N[C@@H](CCCCN)C(=O)N[C@H](C(=O)N[C@H](C(=O)N[C@@H](CCCCN)C(=O)O)[C@@H](C)O)[C@@H](C)CC)[C@@H](C)O)[C@@H](C)CC)[C@@H](C)CC)[C@@H](C)O)[C@@H](C)CC)[C@@H](C)O
B3: Compound no. 13 (peptide)
peptide: H-H[Aib]DGTFISDYSTILK([γGlu-Palmitoyl])NLAARDFINWLIQTKITK-OH
SMILES: CCCCCCCCCCCCCCCC(=O)N[C@@H](CCC(=O)NCCCC[C@H](NC(=O)[C@H](CC(C)C)NC(=O)[C@@H](NC(=O)[C@@H](NC(=O)[C@H](CO)NC(=O)[C@H](Cc1ccc(O)cc1)NC(=O)[C@H](CC(=O)O)NC(=O)[C@H](CO)NC(=O)[C@@H](NC(=O)[C@H](Cc1ccccc1)NC(=O)[C@@H](NC(=O)CNC(=O)[C@H](CC(=O)O)NC(=O)C(C)(C)NC(=O)[C@@H](N)Cc1c[nH]cn1)[C@@H](C)O)[C@@H](C)CC)[C@@H](C)O)[C@@H](C)CC)C(=O)N[C@@H](CC(N)=O)C(=O)N[C@@H](CC(C)C)C(=O)N[C@@H](C)C(=O)N[C@@H](C)C(=O)N[C@@H](CCCNC(=N)N)C(=O)N[C@@H](CC(=O)O)C(=O)N[C@@H](Cc1ccccc1)C(=O)N[C@H](C(=O)N[C@@H](CC(N)=O)C(=O)N[C@@H](Cc1c[nH]c2ccccc12)C(=O)N[C@@H](CC(C)C)C(=O)N[C@H](C(=O)N[C@@H](CCC(N)=O)C(=O)N[C@H](C(=O)N[C@@H](CCCCN)C(=O)N[C@H](C(=O)N[C@H](C(=O)N[C@@H](CCCCN)C(=O)O)[C@@H](C)O)[C@@H](C)CC)[C@@H](C)O)[C@@H](C)CC)[C@@H](C)CC)C(=O)O
B4: Compound no. 9 (peptide)
peptide: H-H[Aib]DGK([γGlu-Palmitoyl])FISDYSTILDNLAARDFINWLIQTKITK-OH
SMILES: CCCCCCCCCCCCCCCC(=O)N[C@@H](CCC(=O)NCCCC[C@H](NC(=O)CNC(=O)[C@H](CC(=O)O)NC(=O)C(C)(C)NC(=O)[C@@H](N)Cc1c[nH]cn1)C(=O)N[C@@H](Cc1ccccc1)C(=O)N[C@H](C(=O)N[C@@H](CO)C(=O)N[C@@H](CC(=O)O)C(=O)N[C@@H](Cc1ccc(O)cc1)C(=O)N[C@@H](CO)C(=O)N[C@H](C(=O)N[C@H](C(=O)N[C@@H](CC(C)C)C(=O)N[C@@H](CC(=O)O)C(=O)N[C@@H](CC(N)=O)C(=O)N[C@@H](CC(C)C)C(=O)N[C@@H](C)C(=O)N[C@@H](C)C(=O)N[C@@H](CCCNC(=N)N)C(=O)N[C@@H](CC(=O)O)C(=O)N[C@@H](Cc1ccccc1)C(=O)N[C@H](C(=O)N[C@@H](CC(N)=O)C(=O)N[C@@H](Cc1c[nH]c2ccccc12)C(=O)N[C@@H](CC(C)C)C(=O)N[C@H](C(=O)N[C@@H](CCC(N)=O)C(=O)N[C@H](C(=O)N[C@@H](CCCCN)C(=O)N[C@H](C(=O)N[C@H](C(=O)N[C@@H](CCCCN)C(=O)O)[C@@H](C)O)[C@@H](C)CC)[C@@H](C)O)[C@@H](C)CC)[C@@H](C)CC)[C@@H](C)CC)[C@@H](C)O)[C@@H](C)CC)C(=O)O
B5: Compound no. 6 (peptide)
peptide: Palmitoyl-H[Aib]DGTFISDYSTILD[Aib]LAARDFINWLIQTKITK-OH
SMILES: CCCCCCCCCCCCCCCC(=O)N[C@@H](Cc1c[nH]cn1)C(=O)NC(C)(C)C(=O)N[C@@H](CC(=O)O)C(=O)NCC(=O)N[C@H](C(=O)N[C@@H](Cc1ccccc1)C(=O)N[C@H](C(=O)N[C@@H](CO)C(=O)N[C@@H](CC(=O)O)C(=O)N[C@@H](Cc1ccc(O)cc1)C(=O)N[C@@H](CO)C(=O)N[C@H](C(=O)N[C@H](C(=O)N[C@@H](CC(C)C)C(=O)N[C@@H](CC(=O)O)C(=O)NC(C)(C)C(=O)N[C@@H](CC(C)C)C(=O)N[C@@H](C)C(=O)N[C@@H](C)C(=O)N[C@@H](CCCNC(=N)N)C(=O)N[C@@H](CC(=O)O)C(=O)N[C@@H](Cc1ccccc1)C(=O)N[C@H](C(=O)N[C@@H](CC(N)=O)C(=O)N[C@@H](Cc1c[nH]c2ccccc12)C(=O)N[C@@H](CC(C)C)C(=O)N[C@H](C(=O)N[C@@H](CCC(N)=O)C(=O)N[C@H](C(=O)N[C@@H](CCCCN)C(=O)N[C@H](C(=O)N[C@H](C(=O)N[C@@H](CCCCN)C(=O)O)[C@@H](C)O)[C@@H](C)CC)[C@@H](C)O)[C@@H](C)CC)[C@@H](C)CC)[C@@H](C)CC)[C@@H](C)O)[C@@H](C)CC)[C@@H](C)O
B6: Compound no. 30 (peptide)
peptide: H[Aib]DGTFISDYK([γGlu-Decanoyl])T[Aib]LDNLAARDFINWLIQTKITD-OH
modifications: N-terminus assumed
SMILES: CCCCCCCCCC(=O)N[C@@H](CCC(=O)NCCCC[C@H](NC(=O)[C@H](Cc1ccc(O)cc1)NC(=O)[C@H](CC(=O)O)NC(=O)[C@H](CO)NC(=O)[C@@H](NC(=O)[C@H](Cc1ccccc1)NC(=O)[C@@H](NC(=O)CNC(=O)[C@H](CC(=O)O)NC(=O)C(C)(C)NC(=O)[C@@H](N)Cc1c[nH]cn1)[C@@H](C)O)[C@@H](C)CC)C(=O)N[C@H](C(=O)NC(C)(C)C(=O)N[C@@H](CC(C)C)C(=O)N[C@@H](CC(=O)O)C(=O)N[C@@H](CC(N)=O)C(=O)N[C@@H](CC(C)C)C(=O)N[C@@H](C)C(=O)N[C@@H](C)C(=O)N[C@@H](CCCNC(=N)N)C(=O)N[C@@H](CC(=O)O)C(=O)N[C@@H](Cc1ccccc1)C(=O)N[C@H](C(=O)N[C@@H](CC(N)=O)C(=O)N[C@@H](Cc1c[nH]c2ccccc12)C(=O)N[C@@H](CC(C)C)C(=O)N[C@H](C(=O)N[C@@H](CCC(N)=O)C(=O)N[C@H](C(=O)N[C@@H](CCCCN)C(=O)N[C@H](C(=O)N[C@H](C(=O)N[C@@H](CC(=O)O)C(=O)O)[C@@H](C)O)[C@@H](C)CC)[C@@H](C)O)[C@@H](C)CC)[C@@H](C)CC)[C@@H](C)O)C(=O)O

target: T1, human glucagon-like peptide-2 receptor; assay: cell-based or functional assay

Efficacy GLP-2R | logEC50 GLP-2R | Binder
23% | – | B1
109% | 9 | B2
95% | – | B3
73% | – | {C16 diacid}-H[Aib]EGTFISDYST[Aib]LDNLAAKDFINWLIQTKITKNDWKHNITQ-OH [Compound no. 43]
91% | – | B4
91% | – | B5
81% | – | B6
87% | – | HXDGTFISDYKTILDNLAARDFINWLIQTKITK (Aib at 2; K(γGlu-C16) at 11; C-terminal -OH) [Compound no. 11]
114% | – | H-H[Aib]DGTFISDYK([γGlu-Palmitoyl])TILDNLAARDFINWLIQTKGKKNDWKHNITQ-NH2 [Compound no. 14]

target: T2, human glucose-dependent insulinotropic …; assay: cell-based or functional assay

Efficacy GIPR | Binder
102% | B1
111% | B2
95% | B3
110% | B4
108% | B5
115% | HXDGTFISDYKTILDNLAARDFINWLIQTKITK (Aib at 2; K(γGlu-C16) at 11; C-terminal -OH) [Compound no. 11]
101% | H-H[Aib]DGTFISDYK([γGlu-Palmitoyl])TILDNLAARDFINWLIQTKGKKNDWKHNITQ-NH2 [Compound no. 14]
